These results are taken from the Immune Epitope Database (IEDB).

One test concerns the target HLA-A*02:03. In words: IEDB peptide-MHC binding, purified MHC/competitive/radioactivity; ≥ and ≤ were set here for values at or beyond the usual limits of such assays.
The target in the next test is HLA-A*02:06. Described as above.
A further test concerns the target HLA-A*02:02. Described as above.
The next test has as its target HLA-A*68:02. In words: IEDB peptide-MHC binding, cellular MHC/competitive/fluorescence; ≥ and ≤ were set here for values at or beyond the usual limits of such assays.
Test [1] deals with HLA-A*02:01. The test is described as above. To be noted: source organism: Vaccinia virus WR.
For test [2], the target named is HLA-A*02:01. In words: IEDB peptide-MHC binding, purified MHC/competitive/radioactivity; ≥ and ≤ were set here for values at or beyond the usual limits of such assays.
Where [3] appears, read: source organism: Vaccinia virus WR.

For RLYDYFTRVT, the IC50 (as a rule, the concentration that inhibits the measured activity by half) is 0.551 µM in the test with HLA-A*02:03 (setting [3]); 0.691 µM with HLA-A*02:06 (setting [3]); 2.45 µM in the test with HLA-A*02:02 (setting [3]); 7.34 µM with HLA-A*68:02 (setting [3]); 6.11 µM with HLA-A*02:01 [1].
Taken in the same sequence, the figures for QLYTISSESL were 0.245 µM, 4.74 µM, 0.072 µM, 6.88 µM and 5.29 µM.
The matching figures for GTKGKLYIA: 0.056 µM, 2.53 µM, 1.72 µM, not below 70 µM and 23.3 µM.
With KIDILQMREI, the IC50 with HLA-A*02:03 (setting [3]) was 0.414 µM; with HLA-A*02:06 (setting [3]), 0.875 µM; in the test with HLA-A*02:02 (setting [3]), 1.28 µM; in the test with HLA-A*68:02 (setting [3]), not below 70 µM; with HLA-A*02:01 [1], 6.51 µM.
Consider FTEEQQQSFM, for which the IC50 in the test with HLA-A*02:03 (setting [3]) came out at 1.75 µM; with HLA-A*02:06 (setting [3]) it was 0.833 µM; with HLA-A*02:02 (setting [3]) it was 1.12 µM; with HLA-A*68:02 (setting [3]), 8.16 µM; in the test with HLA-A*02:01 [1], 10.1 µM.
On to IISTDQDTML, for which the IC50 was determined as 1.81 µM with HLA-A*02:03 (setting [3]); 0.666 µM with HLA-A*02:06 (setting [3]); 0.451 µM with HLA-A*02:02 (setting [3]); 32.4 µM with HLA-A*68:02 (setting [3]); 8.57 µM in the test with HLA-A*02:01 [1].
The matching figures for NIKISLNEI: 0.031 µM, 1.5 µM, 1.67 µM, 20 µM and 21 µM.
On to KVTVPTNDHI, for which the IC50 is 1.24 µM with HLA-A*02:03 (setting [3]); 3.6 µM with HLA-A*02:06 (setting [3]); 4.71 µM with HLA-A*02:02 (setting [3]); 6.59 µM with HLA-A*68:02 (setting [3]); 13.2 µM with HLA-A*02:01 [1].
In the case of KIKQTGINNV, the IC50 stood at 0.0031 µM with HLA-A*02:03 (setting [3]); 2.55 µM with HLA-A*02:06 (setting [3]); 0.237 µM with HLA-A*02:02 (setting [3]); 35.9 µM with HLA-A*68:02 (setting [3]); 7.3 µM with HLA-A*02:01 [1].
With LQWDDNIPEL, the IC50 stood at 0.712 µM with HLA-A*02:03 (setting [3]); 0.034 µM with HLA-A*02:06 (setting [3]); 0.18 µM in the test with HLA-A*02:02 (setting [3]); 42.7 µM in the test with HLA-A*68:02 (setting [3]); 9.52 µM with HLA-A*02:01 [1].
On to GINNVQSLI, for which the IC50 is 0.378 µM in the test with HLA-A*02:03 (setting [3]); 1.73 µM with HLA-A*02:06 (setting [3]); 0.474 µM with HLA-A*02:02 (setting [3]); 30.8 µM with HLA-A*68:02 (setting [3]); 11.7 µM in the test with HLA-A*02:01 [1].
Consider DQDTMLFASA, for which the IC50 came out at 0.663 µM with HLA-A*02:03 (setting [3]); 1.72 µM in the test with HLA-A*02:06 (setting [3]); 0.891 µM in the test with HLA-A*02:02 (setting [3]); 5.66 µM in the test with HLA-A*68:02 (setting [3]); 7.38 µM with HLA-A*02:01 [1].
RVLYDEFVT: the IC50 with HLA-A*02:03 (setting [3]) amounted to 1.41 µM; with HLA-A*02:06 (setting [3]) it was 1.72 µM; in the test with HLA-A*02:02 (setting [3]), 2.17 µM; with HLA-A*68:02 (setting [3]), 28 µM; with HLA-A*02:01 [1], 13.5 µM.
The matching figures for NIDSIMSMM: 0.874 µM, 4.72 µM, 0.025 µM, 11.1 µM and 5.14 µM.
For the sequence VIPDELIDVL, the IC50 with HLA-A*02:03 (setting [3]) was found to be 4.59 µM; in the test with HLA-A*02:06 (setting [3]), 0.298 µM; in the test with HLA-A*02:02 (setting [3]), 2.49 µM; with HLA-A*68:02 (setting [3]) it was 9.26 µM; with HLA-A*02:01 [1], 33 µM.
As for PTILATLNTL, the IC50 with HLA-A*02:03 (setting [3]) turned out to be 0.13 µM; in the test with HLA-A*02:06 (setting [3]) it was 0.771 µM; in the test with HLA-A*02:02 (setting [3]), 0.374 µM; in the test with HLA-A*02:01 [2] (setting [3]), 1.34 µM; in the test with HLA-A*68:02 (setting [3]), 9.74 µM.
As to SLTQVKELGI, the IC50 is 0.075 µM in the test with HLA-A*02:03 (setting [3]); 0.157 µM in the test with HLA-A*02:06 (setting [3]); 0.0098 µM with HLA-A*02:02 (setting [3]); 0.21 µM with HLA-A*02:01 [2] (setting [3]); 7.15 µM with HLA-A*68:02 (setting [3]).
Regarding QLVKDESIQL, the 50% inhibitory concentration (IC50) came to 0.13 µM in the test with HLA-A*02:03 (setting [3]); 1.81 µM in the test with HLA-A*02:06 (setting [3]); 0.157 µM with HLA-A*02:02 (setting [3]); 0.916 µM in the test with HLA-A*02:01 [2] (setting [3]); 7.94 µM with HLA-A*68:02 (setting [3]).
For RMPTDMLKL, the IC50 with HLA-A*02:03 (setting [3]) was 0.106 µM; with HLA-A*02:06 (setting [3]), 0.678 µM; with HLA-A*02:02 (setting [3]), 0.95 µM; with HLA-A*02:01 [2] (setting [3]), 1.84 µM; with HLA-A*68:02 (setting [3]), not below 70 µM.
Taken in the same sequence, the figures for LAELLEMKYA were 1.04 µM, 2.45 µM, 0.999 µM, 2.51 µM and 23.3 µM.
With ALVLLILMTA, the IC50 with HLA-A*02:03 (source organism: SARS-CoV1) came out at 0.051 µM; with HLA-A*02:06 (source organism: SARS-CoV1) it was 0.061 µM; with HLA-A*02:02 (source organism: SARS-CoV1) it was 0.067 µM; with HLA-A*02:01 [2] (source organism: SARS-CoV1), 0.325 µM; with HLA-A*68:02 (source organism: SARS-CoV1) it was 12.5 µM.
For VIPDELIDV, the IC50 amounted to 0.044 µM with HLA-A*02:03 (setting [3]); 0.556 µM with HLA-A*02:06 (setting [3]); 0.609 µM with HLA-A*02:02 (setting [3]); 0.229 µM with HLA-A*02:01 [2] (setting [3]); 52.2 µM with HLA-A*68:02 (setting [3]).
As for AQMGTLLIA, the IC50 with HLA-A*02:03 (source organism: SARS-CoV1) worked out at 0.0016 µM; with HLA-A*02:06 (source organism: SARS-CoV1), 0.00044 µM; in the test with HLA-A*02:02 (source organism: SARS-CoV1), 0.065 µM; in the test with HLA-A*02:01 [2] (source organism: SARS-CoV1), 0.037 µM; in the test with HLA-A*68:02 (source organism: SARS-CoV1), 12.2 µM.
